{"source": "patent US20200306385A1", "about": "(ADC THERAPEUTICS S A, published 2020)", "molecular_target": "CD22 (human, UniProt P20273 20-847)", "assay": "cell-based or functional assay", "data": [{"binder": "Epratuzumab-A (antibody, V domains shown, PBD dimer drug-linker A (SG3246) conjugated to thiols of TCEP-reduced cysteine disulfide bridges; DAR 2.03; which cysteines are modified is not stated) VH: QVQLVQSGAEVKKPGSSVKVSCKASGYTFTSYWLHWVRQAPGQGLEWIGYINPRNDYTEYNQNFKDKATITADESTNTAYMELSSLRSEDTAFYFCARRDITTFYWGQG VL: DIQLTQSPSSLSASVGDRVTMSCKSSQSVLYSANHKNYLAWYQQKPGKAPKLLIYWASTRESGVPSRFSGSGSGTDFTFTISSLQPEDIATYYCHQYLSSWTFGQG", "values": [{"measurement": "EC50 (µg/mL), in vitro cytotoxicity (cell survival, Alamar Blue, 4 days) on CD22+ve Daudi cells", "result": 0.0136, "unit": "µg/mL"}, {"measurement": "EC50 (µg/mL), in vitro cytotoxicity (cell survival, Alamar Blue, 4 days) on CD22+ve Ramos cells", "result": 0.0332, "unit": "µg/mL"}, {"measurement": "EC50 (µg/mL), in vitro cytotoxicity (cell survival, Alamar Blue, 4 days) on CD22+ve WSU-DLCL2 cells", "result": 0.0243, "unit": "µg/mL"}]}]}
